# According to the DeepSol protein solubility set:
# Assay: soluble on expression in E. coli; label from the status in PepcDB or PDB records
row,Sequence,soluble on expression in E. coli
1,MAHHHHHHMDDRDAELDIDEDGIFTCEEVNALTSAMWKAEGLTRVPRSRRHHRQAPPQQRTSAAAVDSLQPGPLAASTTTPGGGSVTDVTLQPLLNTTGEDGGHRSLGGDIRGLPSSFSNAPLFASATTTAAGLSSTSSPQPTSQALHHHHNDVDRQLGGNSNTSGRRMAGGGGSVGGEGSRSSSSVYEVLIQRVLAMDTASDIWSLGVLLYGMCADTADAQQQEEQQQHQASASTTTPTLNPPHATAAGSSPVRAHEGVAGTLPPAMPTCTCASRLAQRAFAALLGDLYDLAVTGVPSGDRGNNGWSCDGVDVEQLDEAADDHLRWPRSCALEEEVMQAIGEAGYTHVFASVLASMLSPVAARRPSAGDIVNQLRLVTTGAPATLASNIMRGGGGGLADADDEYSVARQSPPPRIQHSGGASDATSSVMLHEQTACMALRQR,not soluble
2,MAHHHHHHMDHQDLKPVIWHKTEKKTKPKDIHEARKLGIDVEVEKKYFGGKNKSSKGNLIIENKAKIEQETENFKIDRVTPAFSRALQQARISKKLTQAQLARLVNESESVIKEYENGKAIPNNVIIQKLNKVLGVNLPSPKKK,soluble
3,MAHHHHHHMDIIKNETKEMDMYNPSVSINFEKGILKNSCDTPKDTKLEKLKREYNILTSSYDYNSGNKKERRNIWKEKVKHNIASKNKKKMVKIKKEENNNELENKKGENLLMYVNDKNSNLNVYIDENDLFEETPNISSNTLLSYISNIFLRKKNIYEIKKCDFIKEVNTDESLKRNFIPPVDILYDDKKVLFLFFISGNLQNFHVTSNNNYLTISGEKIPYQVQDHTSYFSHEIKKGYFIRTYCFMKTFDKEKIYYEQNNGVIKIYVYICDDNNI,not soluble
4,MAHHHHHHMDMQEQISDKGADDYDDTLVELKESELLKEDEKKKTKKKLYELNELHHLVNALPYIDSYDNELEQNAKRLVEEEMNLMHKNNEIKNYLETFPLPKITYLSNDNSIIQNELKRCEENRKMQKLNFDHYNIENDVLNNKNIEEWEKTLKKYEIILENSHNALINMELMNKYKEVMWSEHMKVFNHLDINLQNNIKTLKDDIDNINKKRKLHQLSYVNELSTLQNEQKEYKKKNNMVLNEIKKLMTENMLMKYKTNMI,not soluble
5,MAHHHHHHMDPLAGLTTGSRNVIDDFFRWSRLSLDKFKRDLTVEASAFQAGNLWREQYTKAEVAQMLNGQLALMLGVVDTQMEGTTAASAELMRAVLREADRQRVTLDIDVKSVLNNAGGVNAMGEHGRQLMSGPTGRLAPLTVEEASGEAARQLAEANAEVKRLQAKLQQVTDAYTQVMRGRSSDTENLLSMQDAMNDKERLAAELARRCQGQDPSLAATVQELRAEVAEAKRELASRLHQSTQYQQVKHLLAQRNEQLKMMRERLAAYDPSFARYGDDINAEDD,soluble
6,MAHHHHHHMDQFIRSRTDWKERVVFRLVWITASRWFGISGLHSQQFYTGAGRDPNLGLARGAEDGEGGSPPRLSVRQDTRAGGCVRHYKVMQDTSTQRKAHESYDCPLGASSGLLECHGAFHKTRCVEARCSNRGGVQFGPTRDPAVGEARRPVRPSPEYCLIFGEIHHNADPGVVASRIDVKRETAEGQ,not soluble
7,MAHHHHHHMDREDDKKNKFPFTQNNCVVVRSKLDRKNISKMKLSDEQVTANEEITKSVLLKEVNMQDAYDQIGKNANDFSRIYNLFERELLNKSNIKNVYINGIKKNIIVDDGHMKTKVEKKSLKLIDEIHLTYKKRPIILIEKESSNHIINRNNVESFFVHNCLDNSGANRKGTHAASGGGEGAVTGPYNSIPIIYKMFNKKKSIKFSFIENDQISKLTETDWKCVIAVIIKSKESLKDILNEYPFEIPTALFQPFKSFFFMFNDVIIPSDLLTGGNVDIIRLSRDKRKEDYLAVNKFWTNIEKFILQRRDKSCYTRKKKF,not soluble
8,MAHHHHHHMECGYSNEGKFHQVVLTIKEKIEKHDLSKWKDIVKPEEGPKYDEYFERLLREGNQEKDKNGKDTEGKDTHEKNTHDEGVHGKDDLSAEQVEKTPSHEYQQTEDEENPKKFQLNKEFFDKINNKEKFYFLLNIKEMMETSWLLAQKRLEGIKVEEKSKSVNVQDLLNYSQKIADTTCAPPECDNINDRIMHQEYYPNYHFLNFVNVEEIHLSKLFQLQKYSTVCFPPIITIQEGKDNMLVLHISCSTPHATIYYKVNDETNEQIYNTDEKPKIRKRKKINVYAWSVKNGHIKSRISCISKSYKVEEDDSFSLSDNFPNKDQGEQPSGFSKTGTECNAPGSKPSQITNVFKNLGFLLSRKKEKTEESSSNGDSSSEA,not soluble
9,MAHHHHHHMEENNQVEKNKTNQLCFVKMLVNNLVAGSVIGKNGSIITSIENKTGCSLKLSPTNSYFPNTQERVLVLCGKQEQINNALLIILDKIRQITVQSFQDKQNMNTVPKYTCRIVIPKSAASAIIGKGGQQIKQLQDSTGAKIQISSREDGLNERIISIIGPFESISDTAIKVTNSIQNDPNLKDLLNVIYNKDTNMNGRSSLSQNFVNQVPLNGYVVPQQYGVFQHEQYMDVNMMNSLMRHSRDLFNLPCEISIQI,not soluble
10,MAHHHHHHMEGARGSTLQVCGERHTMSLSLATALYADATRLYRLGDLHHARGAAEEALLSLSHSPHSDISDHTNHRHGDAHHEEAADSVSVGCEGSQAQQRQRHRLFGNTLLLLSSIYMAVQDYAEAERLLVTCDGYWRERLTSTHTRLSSVGTSAEVECACCSELDEGLAGVAYNRAVLRLEQLRRTPSFPASRDDGELWVAPPADLCGTDARLTYSLIPLSSTAASSGTPETLLASVMALLLDAQDRLAHTLGPPRGLLADVLHTIGVCHYEAADYIAALQAWQRSMAIRVHLQALRRRSDKNAAQRALHGGGGGECGDGTEELKLALTMEHVAQVYRLLEGRSVEALKLLDTVAATRRRYLGPTDPLCVRTLVLKGVLAAELGHTQLARALLERCSAIGGDASPETPPPSSSAYAVQEVEQ,soluble
11,MAHHHHHHMEHVRHLLDVIMGRATLDPGVARVVSVFFNQKSSGFSPQELMQFLVTCAFHVKGMTPLEAARFCFFALRRDMEHAIARDDVIFMLEHSLIEHTIEMPEMELRRRVVDIFGDTTYVIFDDFVRYFIHNYAMWYAFGVPVTVSGERSGRGGDVAPQLNPTLTLLKADGEPNAKARAPTAATTVSTSGAAPVSASTSTTAATPAAAITTATTQKTVPHDESVWRTFIARVQHSNKAFSVTAHVNDTIFDVMVMVQNSTGIRAACQEWRAGNVALDPKCRLGSTELGLGGNEVAAPEVIIIARDEAVRLVMVYKEKGFRWEVRLPSSEKVLKLRALVQHKTMIPLTRCVLRAHGSCLMDRHPLAHYNLQDGDVVTITQE,not soluble
12,MAHHHHHHMEKVITMREIITNTRKIKLHENFLEDCNLKDIFYNGLETVNCGYNDYVNMKTWLFVLSEKMFRTDYEELAYVACDALKVLLCNSKFLNVIIFKLLRKKLEKEILKIMGICCLTVASRMQQINESTCFKVILELSNLKDKLNEFNIRQIEMDVFVTLAHSGFCFEKIITPVNELNQIMKFLETYENFFDNNFNTFKSSSNLMLKIIYCMVPVFNMNIYNYSIVNYALRLFIQDNDKYEFIFEKLKQNYQDKEIIHISNFQNHMHNIINAFKNTSIFSAKDSILNNQLDVQLFEEINKKIEAYYEQKHKT,not soluble
13,MAHHHHHHMERTNLGHGAVGSLAQLCDELRKSYAAAKEIEQRDTTLTKSETANTLKETSNLFALGMEKLISSDGNVVEVKDAIALAEDAEREVAALRAEKARLQSTEDGHRSKLSATGSDAEVEAFVAYAKELSELHDHLFLARVVFKGVLTKRLEDIRDDRLSQQDKRFTDPKSWDVKKGVLERMLQSLRTKTAQLQLSAKTYLDEDEALFLEVMNLATEAGDHVRRGDAMREARDEKLKVFYAECAKLTGWCRQQLTNLEAMQEPDHVQEYCATLADNYPTMSNNFAVLFNSVQEYVQASLIPVHKALLEAEEVWLYLQVSTLERLSKTLFEIHPQSPLDVEVEKYSSYPEHAAKFLQDLERYLAAQHRQQDEVAELDSVHKECQEVLHTLSGQFAELPSEVHAFAQRAQALRAGYQCFREALLQRLTYVSPAASTVVESKRRQEEFENCVRELKSWAAEASHGESWRDIYSKIVEIKQMIKSEQASLEMKRERAVASGQSR,not soluble
14,MAHHHHHHMEVFNFGKYNGKTFEEVFEKHKSYVTWVKSLESPSGSLLDFKNYVLQKEGKKNSSNMANNNHYNNEKNSNNNYSNNMYENNVRSPNIYNEQYTNNNKMKENYDRNANMNNNEICTNNNRINENNVKSPHYYNNEKNINNYSHECNRSKIAYKHNYSENRNSYNNFEKSSVDTNYTNEEKKKFHNMNSSEYRNYEEKVMSDINNAYNQPEEKKEFDIIVAFEIFSDDSFKIVQKDNNNKKFVSFRNFISKDLFKIISELNPTLKKINNYTCITFEAEKYEYVLNNLKEKCTILGGVHTIPNFLLKCFKNYTKFSEPQRISEITANILTNTMCSYTKQHYDKLDHLLGEKLSVELRNFQREGVFFGLKKNGRVLIGDEMGLGKTLQALALMAFYKDDWPFIVVCPSSIRFQWKDQALRWLSHLIREEHICVVKNGKTDIPSNTKMIIISYELITKNDKYQDKYKSIICDESHYLKNSLSKRTKVITPIIKNAKRCVLLSGTPALNKPSELYEQISSIMPNFFNYHEFCDRYCFKDKNLYTKKIEYVGCKHTEELHLFLTNTIMIRRLKKDVLKELPDKLRSKIPVEIPQKELSEILNYYKKLESKKNINFHDIDNIHLSNWSNSKSEDGDDENLSISHLFKITGYAKVKAIKEYISYLIDADIKFLLFCHHKLVMDEVETFLKEQKCSYIRVDGLTPMEKREIYIKNFQNDDNVKIALLSITACGMGLNLTAANTVVFGELFWVPGQIIQAEDRAHRIGTAHDVVNIHYLIAQNTIDEIVWKIINRKWNTLTTALNGIEDSLNVKEVNKFDKFMVDLTNDTNKSYPTSLVTTPKVRRKSSEHGTFHNSSPKKKNRDIRDFFTANKCNESVEKSWNNNINKRSYHDSPMNDSPNTTLKFLSKKYKTEIN,not soluble
15,MAHHHHHHMEWVPCTEQTGSVGCREGHCATSLQEKSTGEEWVLVVGGYCEGERDGAVMAARADGLPMLRWVRLDKPNMTWFECDGASLTHVTGDTAYFFGGLNEHMNHSNQLLCLSLHQGQQGDLSLDVVKVETTGDVPLPRARHSAGSAGRYFVVFGGETEDAEQNNDGYILDTDTMVWTRIPTGHQVPNPRLLAGPLVFYSPHGCILYGGAHFVNGDIRSMSDVWNLHIPLGGTWFNVSYGDGAPACRFPRSNGHAGGVLGRVGGETVVVFVGGKDAAEGCDRVKQVQPPKSAEDKFHLRLVDPVLAGGEGPHWRYTPAAVDTRRGVLLLGGQCRHPQEVAAFLLKQTGVTLQR,not soluble
16,MAHHHHHHMEYDDGEYGRESSVEALAQSQESEQVASAASGLPESSSSAGSAKPSFRILSTRQLAQWARVRHQMDVGCSGNTVWTVSSAKHGNGVLHLMRHHDLNNFWQSDGVLPHVIRIQLGQLTPVEAMAVYVNSAVDQSYSPRVIRVKAGTHNGDMTEVAKADIGAGQECGWVLITLREMAGDDGDDVEGGGPNDGGGGVAAGVRIQHQQQEVRPRQQDGGAPEGGAASSYSPPIPYSEVAAALGHGNHATPSSAGVQTSAAMPRIPRSTSNPADRWLWCTLIDIYICENQFNGRDCHLRGIRLMGPRYEELERVSNADATGTVTCARPLQGGEPLEGTADELQLR,not soluble
17,MAHHHHHHMFKCATRCLLDTKTVPLKPQRPFKLHTAGRTDMAPLPTQAVYDAEQLKQSLALMFRIRRMESLCDQSYKLKKIRGFCHLYIGQEAIPAGMENVLTFEDPIITGYRDHGWYISRGGKPEDVFAEMFGRQGGCSKGKGGSMHMYRVDNGFYGGNGIVGAQVSIGAGLAWRFAMENRDSPKHVAVTFYGDGAANQGQIYESMNIAALQRLPVIFAVENNHFGMGTSAARGSYQAEFYRRGDYIPGIKVDGMDVLAVQEGTRYARDYCMSGKGPIVMELDCYRYMGHSMSDPDNQYRTKSDIQHVKQERDCIRKMREFMATEGIMTEDEMSKMEKDVKKEVDQDLQKAQKQPMTKLDELFTDIYVGEQYEHRTCQGTVYHKP,not soluble
